The text below walks through data of patent US20240218054A1 (MABLOC, published 2024).

The target of this assay is T1, recombinant YFV E protein (soluble E, sE; YFV Asibi strain) (Yellow fever virus, Asibi strain, UniProt Q6DV88 286-678).
T1 construct: also called YFV E antigen; YFV E monomer
Description: BLI monovalent (IgG on tip).

As a reminder, the Kd is the concentration at which binding is half-saturated.

T1 sequence (Q6DV88 286-678): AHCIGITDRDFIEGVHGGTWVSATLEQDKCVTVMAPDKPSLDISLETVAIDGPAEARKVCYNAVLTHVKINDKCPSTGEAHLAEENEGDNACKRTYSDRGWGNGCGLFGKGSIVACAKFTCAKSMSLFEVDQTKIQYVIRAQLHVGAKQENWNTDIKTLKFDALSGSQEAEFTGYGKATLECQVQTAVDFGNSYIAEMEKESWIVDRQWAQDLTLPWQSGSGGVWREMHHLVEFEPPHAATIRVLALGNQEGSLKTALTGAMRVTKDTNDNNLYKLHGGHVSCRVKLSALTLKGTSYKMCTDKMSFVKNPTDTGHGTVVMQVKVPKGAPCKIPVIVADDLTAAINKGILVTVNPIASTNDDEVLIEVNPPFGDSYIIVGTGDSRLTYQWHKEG

B1: ADI-45140 (antibody, V domains shown)
VH: EVQLLESGGGLVHPGGSLRLSCAASGFTFSDYEMNWVRQAPGKGLEWVSHISSSGNIIYYADSVKGRFTISRDNAKDSLYLQMNSLRAEDTAVYYCAATIFGVVSFDYWGQGTLVTVSS
VL: QSVLTQPPSVSAAPGQKVTISCSGSSSNIGNNYVSWYQQLPGTAPKVLIYDNNKRPSGIPDRFSGSKSGTSATLGITGLQTGDEADYYCGTWDSALGAAVFGGGTKLTVL
notes: full-length IgG; also called Antibody Number 61
With B1, the Kd came to 4.6 nM.

B2: ADI-48916 (antibody, V domains shown)
VH: EVQLVESGGGVVQPGRSLRLSCAASGFTFSNSGMHWVRQAPGKGLEWVAVIWYDSRNQNYADSVKGRFTISRDNSKNTLFLQMNSLRAEDTAVYYCARDYYASGDGSIDYWGQGTLVTVSS
VL: DIQVTQSPSSLSASVGGRVTITCRASQGIRNDLGWYQRKPGKAPKRLIYAASSLQSGVPSRFSGSGSGTEFTLTISSLQPEDFATYYCLQHNSYPLTFGGGTKVDIK
notes: full-length IgG; also called Antibody Number 56
As for B2, the Kd amounted to 393 nM.

B3: ADI-45164 (antibody, V domains shown)
VH: EVQLQESGPGLVKPSETLSLTCTVSGGSISSSSYYWGWIRQPPGKGLEWIGSIYYSGSTYYNPSLKSRVTISVDTSKNQFSLKLSSVTAADTAVYYCARGYCSSTSCFYYYYGMDVWGQGTTVTVSS
VL: not shown
notes: full-length IgG; also called Antibody Number 65
With B3, the Kd was > 100 nM.

B4: ADI-48913 (antibody, V domains shown)
VH: EVQLLESGPGLVKPSETLSLTCTVSGGSISSYYWSWIRQPAGKGLELIGRIYTSGSGNYNPSLKRRVTMSVDTSKNQISLRLNSVTAADTAVYYCARERGGYFTEPFDIWGQGTMVTVSS
VL: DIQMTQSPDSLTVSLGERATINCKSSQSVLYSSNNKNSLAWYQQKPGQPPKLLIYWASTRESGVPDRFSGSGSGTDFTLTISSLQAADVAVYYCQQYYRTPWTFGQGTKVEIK
notes: full-length IgG; also called Antibody Number 60
For the molecule B4, the Kd worked out at 186 nM.

B5: ADI-42211 (antibody, V domains shown)
VH: QVQLVESGGGVVQPGRSLRLSCGGSGFTFSSYGMHWVRQAPGKGLEWVAVISYDGSKKYSADSVKGRFTISRDNSKNTLYLQMNSLRAEDTAVYYCAKGSVSVAGAEDYWGQGTLVTVSS
VL: DIQMTQSPSSLSASVGDRVTITCRASQGISSYLAWFQQKPGKVPKLLIYAASTLQSGVPSRFSGSGSGTDFTLTISSLQPEDVATYYCQKYNSAPQTFGQGTKVDIK
notes: full-length IgG; also called Antibody Number 58
B5: the Kd amounted to 1.64 nM.

B6: ADI-48908 (antibody, V domains shown)
VH: EVQLLESGGGLVQPGRSLRLSCAVSGFTFAEYAMHWVRQAPGKGLEWVSSISWNSGRIGYVDSVRGRFTISRDNAKNSLYLQMNSLRVEDTAFYYCAKGYDSSGYYWADYWGQGTLVTVSS
VL: EIVMTQSPATLSVSPGERATLSCRASQSVSFNLAWYQQKPGQAPRLLISRASTRAAGVPARFSGSGSGTEFTLTISSLQSEDFAVYYCQQYNNWPPLTFGGGTKLEIK
notes: full-length IgG; also called Antibody Number 59
For the molecule B6, the dissociation constant (Kd) stood at 1.76 nM.

B7: ADI-42154 (antibody, V domains shown)
VH: EVQLVQSGGGLVQPGGSLRLSCAASGFTFSTYWMSWVRQAPGKGLEWVANIKQDGSEKYYVDSVKGRFTISRDNAKNSLYLQMNSLRAEDTAVYYCARDISCISTSCYGGYYYYGMDVWGQGTTVTVSS
VL: not shown
notes: full-length IgG; also called Antibody Number 55
For the molecule B7, the Kd stood at 164 nM.

B8: ADI-42849 (antibody, V domains shown)
VH: QVQLVESGGGLVKPGGSLRLSCAASGFTFSDYYMSWIRQAPGKGLEWVSYITSSGNTMYYADSVKGRFTISRDNAKNSLYLQMNSLRAEDTAVYYCARDSNFNSNLDYWGQGTLVTVSS
VL: SYELTQPPSVSVAPGQTARITCGGHNVGSKSVHWYQQKPGQAPVLVVYDDSDRPSGIPERFSGSNSGNTATLTISRVEAGDEADYYCQVWDSSSDHPWVFGGGTKVTVL
notes: full-length IgG; also called Antibody Number 50
B8: the Kd was 1.98 nM.

B9: ADI-45154 (antibody, V domains shown)
VH: EVQLVESGGGVVQPGRSLRLSCAASGFTFSNYGMHWVRQAPGKGLEWVAVISYDGSNKYYADSVKGRFTISRDDSKNTLYLQVNSLRAEDTAVYYCAKDICSGDCGGGDYWGQGTLVTVSS
VL: QSVLIQPPSASGSPGQSVTISCTGTSSDVGGYNYVSWYQQHPGKAPKLMIYEVSKRPSGVPDRFSGSKSGNTASLTVSGLQAEDGADYYCSSYAGSNNWVVFGGGTKLTVL
notes: full-length IgG; also called Antibody Number 53
Turning to B9, the Kd was > 100 nM.

B10: ADI-49133 (antibody, V domains shown)
VH: EVQLLESGGGLVQPGGSLRLSCAASGFTFRNYAMNWVRQTPGKGLEWVSGISGGGDSTNYADSVKGRFTISRDNSRNTLYLQLNSLRAEDTAVYYCAKDLAVSTPRYWFDSWGQGTLVTVSS
VL: DIQMTQSPSSLSASVGDRVTITCRASQTISVDLNWYQHKPGKAPKLLIFAASTLQSGVPSRFSGSGSGTDFTLTIRSLQPEDFATYYCQQSYSIPRITFGQGTRLEIK
notes: full-length IgG; also called Antibody Number 6
B10: the Kd worked out at 6.91 nM.

B11: ADI-42231 (antibody, V domains shown)
VH: QVQLVQSGAEVKKPGASVKVSCKASGYSFTTYGISWVRQAPGQGLEWMGWISGYSGDTNYAQKVQGRVTMTTDTSTSTAYMELRSLRSDDTAVYYCARDQSHGTFGGVIDSTTLFYYYGMDVWGQGTTVTVSS
VL: DIVMTQSPATLSLSPGERATLSCRASQSVSSYLAWYQQKPGQAPRLLIYDASNRATGIPARFSGSGSGTDFTLTISSLEPEDFAVYYCQQRSNWPSFGQGTKLEIK
notes: full-length IgG; also called Antibody Number 64
With B11, the Kd was found to be 42.1 nM.

B12: ADI-42199 (antibody, V domains shown)
VH: EVQLVESGGGLVQPGGSLRLSCAASGFTFSDHYMAWVRQAPGKGLEWVGRIRNKPNSYTTEYAASVKGRFTISRHDSENSLYLQMNSLKTEDTAVYYCCRESGEGFDPWGQGTLVTVSS
VL: SYELTQLPSVSVSPGQTARVTCSGDALQYVYWYQQKPGQAPVVVIYKDTERPSGIPERFSGSSSGTTVTLTITGVQAEDEADYYCQSADRSGSVIFGGGTKVTVL
notes: full-length IgG; also called Antibody Number 63
Take B12: the Kd was 0.7 nM.

B13: ADI-49161 (antibody, V domains shown)
VH: QVQLVQSGAEVKKPGASVKVSCKASGYTFNTYAMTWVRQAPGQGLEWMGWISTYNGNTVFGQKFQGRVTLSTDTSTSTAYMELRSLTSDDTAVYYCAREDDDYYSMDVWGQGTTVTVSS
VL: QPVLTQPASVSGSPGQSITISCTGTSTDVGGYNYVSWYQQYPGKAPKLIIYDVTNRPSGVSHRFSGSKSGNTASLTISGLQAEDEADYYCSSYTTTSLVIFGGGTKLTVL
notes: full-length IgG; also called Antibody Number 54
For B13, the Kd stood at 1.81 nM.

B14: ADI-45085 (antibody, V domains shown)
VH: EVQLVESGGGLVQPGGSLRLSCAASGFTFSSYAMSWVRQAPGKGLEWVSTFSGRGGSTYYADFVKGRFTISRDNSKNTLYLQMNSLRAEDTAVYYCAKYYDSSGYYYFDYWGQGTLVTVSS
VL: DIQLTQSPSTLSASVGDRVTITCRASQSISTWLAWYQQKPGKAPKLLIYRASSLESGVPSRFSASGSGTEFTLSISSLQPDDFATYYCKQYNRNPYTFGQGTKVEIK
notes: full-length IgG; also called Antibody Number 57
With B14, the Kd came to 152 nM.

B15: ADI-50211 (antibody, V domains shown)
VH: EVQLVESGGGLVQPGGSLRLSCAASGFTFSAYAMSWVRQAPGRGLEWVSAISGSDRRIYYADSVKGRFSISRDNSKNTLYLQMSSLRAEDTAVYYCAKYYDSSGYYYLDYWGQGTLVTVSS
VL: DIQLTQSPSTLSASVGDRVTITCRASQSVSSWLAWYQQKPGKAPRLLIYRASSLESGVPSRFSGSGSGTEFTLTISSLQPDDFAAYYCQQYNRDPYTFGQGTKVEIK
notes: full-length IgG; also called Antibody Number 62
As to B15, the Kd amounted to 20.8 nM.

B16: ADI-46001 (antibody, V domains shown)
VH: EVQLVESGGGLVKPGGSLRLSCAASGFTFSDYYMSWIRQAPGKGLEWVSYISSSGNTIYYADSVKGRFTISRDNAKNSLYLQLNSLRAGDTAVYYCARDSNYFYGLDVWGQGTTVTVSS
VL: QPVLTQPPSVSVAPGQTARITCGGNNIGSKSVHWYQQKPGQAPMLVIYSNSDRPSGIPERFSGSNSGITATLTISRVEAGDEADYHCQVWDTSIDHHWVFGGGTKLTVL
notes: full-length IgG; also called Antibody Number 52
Take B16: the dissociation constant (Kd) came to 6.17 nM.
